Patent publication US12247238B2, “Mogroside biocatalysis methods and products” (The Coca-Cola Company, priority 2019, dated 2025)
Where a chain is given by its changes, count along the chain named. In names and notes the source's numbering stands. Entries after “also recorded” stand apart in the source; their conditions may differ. Each block holds one molecule with its values, some of them ahead of it.

Columns and labels:
Format in all cases: biochemical
[1] = Example 8 standard mogroside biocatalytic assay, Sia I as substrate; conditions: 37° C., pH 5.6
Protocol: (§1) Standard mogroside biocatalytic assays were performed at 37° C. in 500 μL volume 50 mM sodium citrate buffer pH 5.6, 10 mM magnesium chloride, 10 mM substrate (typically mogroside V or Siamenoside I) and 50 μg mL−1 enzyme, and incubated for 24-96 hours. Mogroside glucosidation activity was detected by direct HPLC detection and quantification of mogroside V substrate and mogroside products from filtered reaction supernatant, and quantified by comparison with standard curves based on peak area (see Analytical Methods).
(§2) Analytical Method: Mogroside compounds HPLC separation and quantification was conducted using a Synergi Hydro-RP column (250 mm×4.6 mm or 150 mm×4.6 mm) with an initial flow rate of 1 mL min−1 and a water: acetonitrile gradient as per below, similar to that described by Zhou et al. (WO 2014/150127). Compounds were detected at 210 nm using diode array detector (Agilent Technologies, USA), and calibration curves established using standard curves from 0.1 to 10 mM. 150 mm column retention times in minutes: mog V 9.5, sia 1 10.6, mog IVa 10.5, mog IV 11.3, mog III 12.6, mogl I 13.2. 250 mm column retention times: mog V 12.3, sia 1 13.2, mog IVa 13.5, mog IV 14.1, mog III 15.3, mog II 16.2.

[2] = Standard mogroside biocatalytic assay, mogroside V substrate; conditions: for Initial Rate / Reaction Progress / Sia 1: Mogroside hydrolysis; for Initial Rate / Reaction Progress / Sia 1 / Sia:MogIII / Sia:MogIV: 37 C., pH 5.6; for Reaction Progress / Sia 1 / Sia:MogIII / Sia:MogIV: 72 h; for Sia:MogIII / Sia:MogIV: product ratio
Protocol: as §1, with “μL,” for “μL”, “V)” for “V or Siamenoside I)”, “peak.” for “peak area (see Analytical Methods).”
(§3) Mogroside compounds HPLC separation and quantification was conducted using a Synergi Hydro-RP column (250 mm×4.6 mm or 150 mm×4.6 mm) with an initial flow rate of 1 mL min−1 and a water: acetonitrile gradient as per below, similar to that described by Zhou et al. (WO 2014/150127). Compounds were detected at 210 nm using diode array detector (Agilent Technologies, USA), and calibration curves established using standard curves from 0.1 to 10 mM.
(§4) Cells expressing enzyme variants grown in buffered minimal medium were induced for 72 hr with 1% methanol (refreshed every 24 hr), the culture supernatant harvested and assayed for standard ONPG activity over 30 minutes and mogroside V activity at pH 5.6, 37° C. for 72 hrs. The resultant activity data (Table 2) identified E200 and D258 as the likely catalytic pair for acid/base and nucleophilic attack of mogroside V by the A. oryzae β-glucosidase enzyme.

[3] = Example 8 standard mogroside biocatalytic assay, Mog V as substrate; conditions: 37° C., pH 5.6
[4] = β-galactosidase ONPG activity assay; conditions: oNPG substrate, over 30 minutes
Protocol: Standard β-galactosidase assays were performed at room temperature using o-nitrophenyl-β-D-galactopyranoside (ONPG, Sigma) as a substrate in […] with detection of o-nitrophenol release at 420 nm (UV-Spectra Max Spectrophotometer, Molecular Devices, USA). A typical reaction contained 50 mM sodium citrate buffer pH 5.6, 10 mM magnesium chloride and 100 mM potassium chloride with 2 mM ONPG and the desired amount of enzyme (usually […]). Partially purified AoBG (Sigma G5160, USA) was used as a positive control at a final concentration of 1 U mL−1. Vmax was calculated using the SpectraMax Plus software (Molecular Devices, USA) and when required kinetics were determined by varying the concentration of substrate and kinetic determinants calculated using Hyper™ (J. S. Easterby, Liverpool University).
as §4

[5] = Example 8 standard mogroside biocatalytic assay, Mog V as substrate; conditions: 37° C., pH 5.6; for % Siamenoside I: 72 hr
Protocol: as §1, §2

[6] = RRK loop library variant screening, mogroside V substrate; conditions: second pass evaluation, 10 mM mogroside V, pH 5.6, 37° C., 72 hours
Protocol: (§5) Single transformant colonies from 3.2.2 were inoculated into 2mL BMGY in 48 well-growth blocks and grown overnight at 30° C., 1000 rpm in a benchtop incubator before dilution of cell culture from each well into 2 mL BMM medium an equivalent well in a fresh growth block, to an OD600 nm of 1.0, and growing the induction growth blocks at 30° C., 1000 rpm in a benchtop incubator for 72 hours. The cells were then harvested (5000 g, 10 minutes) and the supernatant from each well concentrated using a 30 kDa cut-off Amicon Ultra 0.5 mL concentrator column (10 000 g, 5 minutes). Enzymatic assays were setup in fresh growth blocks to a total volume of 500 μL, comprising with 50 mM sodium citrate buffer pH 5.6, 10 mM magnesium chloride, 10 mM mogroside V and 50 μL concentrated supernatant (˜35 μg mL−1 protein). Assays were incubated without shaking at 37° C. for 72 hours. 190 μL of reaction was combined with 10 μL 10 mM internal standard (N-Boc-) and 5 μL analyzed by HPLC.
as §2, with “Mogroside” for “Analytical Method: Mogroside”
Therefore, variants showing improved function were chosen if they surpassed a yield value >70% by peak area during this first pass evolution.
(§6) 48 variants were selected based on Siamenoside I yields of >70% by peak area for a second pass evaluation. The cell lines were regrown and assayed with both mogroside V and Siamenoside I as substrates, independently.

[7] = RRK loop library variant second pass evaluation, Siamenoside I substrate; conditions: Siamenoside I as substrate
Protocol: as §5
as §2, with “Mogroside” for “Analytical Method: Mogroside”
as §6

[8] = Mogroside biocatalytic assay, Siamenoside I substrate; conditions: SiaI Substrate (10 mM) (24 h), pH 5.6, 37° C.
Protocol: as §1, with “μL,” for “μL”, “V)” for “V or Siamenoside I)”, “peak.” for “peak area (see Analytical Methods).”
as §3

[9] = Mogroside biocatalytic assay, equimolar MogV:SiaI substrate
Protocol: as §1, with “μL,” for “μL”, “V)” for “V or Siamenoside I)”, “peak.” for “peak area (see Analytical Methods).”
as §3

[10] = Mog V Substrate (10 mM) (24 h), pH 5.6, 37° C.
[11] = Equimolar MogV:SiaI Substrate (5 mM each) (48 h), pH 5.6, 37° C.

oNPG [4]: 41.4 ± 0.9 mAu/min/mg
B1: D258E: A. oryzae β-galactosidase variant, D258E (protein, UniProt Q2UCU3 19-1005, looked up, variant D258E)
Beta-galactosidase A: ASIKHRLNGFTILEHPDPAKRDLLQDIVTWDDKSLFINGERIMLFSGEVHPFRLPVPSLWLDIFHKIRALGFNCVSFYIDWALLEGKPGDYRAEGIFALEPFFDAAKEAGIYLIARPGSYINAEVSGGGFPGWLQRVNGTLRSSDEPFLKATDNYIANAAAAVAKAQITNGGPVILYQPENEYSGGCCGVKYPDADYMQYVMDQARKADIVVPFISNDASPSGHNAPGSGTGAVDIYGHESYPLGFDCANPSVWPEGKLPDNFRTLHLEQSPSTPYSLLEFQAGAFDPWGGPGFEKCYALVNHEFSRVFYRNDLSFGVSTFNLYMTFGGTNWGNLGHPGGYTSYDYGSPITETRNVTREKYSDIKLLANFVKASPSYLTATPRNLTTGVYTDTSDLAVTPLIGDSPGSFFVVRHTDYSSQESTSYKLKLPTSAGNLTIPQLEGTLSLNGRDSKIHVVDYNVSGTNIIYSTAEVFTWKKFDGNKVLVLYGGPKEHHELAIASKSNVTIIEGSDSGIVSTRKGSSVIIGWDVSSTRRIVQVGDLRVFLLDRNSAYNYWVPELPTEGTSPGFSTSKTTASSIIVKAGYLLRGAHLDGADLHLTADFNATTPIEVIGAPTGAKNLFVNGEKASHTVDKNGIWSSEVKYAAPEIKLPGLKDLDWKYLDTLPEIKSSYDDSAWVSADLPKTKNTHRPLDTPTSLYSSDYGFHTGYLIYRGHFVANGKESEFFIRTQGGSAFGSSVWLNETYLGSWTGADYAMDGNSTYKLSQLESGKNYVITVVIDNLGLDENWTVGEETMKNPRGILSYKLSGQDASAITWKLTGNLGGEDYQDKVRGPLNEGGLYAERQGFHQPQPPSESWESGSPLEGLSKPGIGFYTAQFDLDLPKGWDVPLYFNFGNNTQAARAQLYVNGYQYGKFTGNVGPQTSFPVPEGILNYRGTNYVALSLWALESDGAKLGSFELSYTTPVLTGYGNVESPEQPKYEQRKGAY
Km [1]: 3310 ± 800 µM
kcat [1]: 36.8 ± 3.1 s⁻¹
rate of mogroside hydrolysis (in words) [2]: increased initial rate of mogroside hydrolysis; also recorded: increased rate of mogroside V hydrolysis
Initial Rate [2]: 2.70 µmol/min/mg
Reaction Progress [2]: 99%
Sia 1 [2]: 55%
Sia:MogIII [2]: 2.8
Sia:MogIV [2]: 2.1
Km [3]: 2500 ± 200 µM
kcat [3]: 966 ± 26 s⁻¹
Reaction progress (% conversion) [5]: 99%
% Siamenoside I [5]: 55%

B2: S2 RRK 16: RRK loop library variant, positions 204/205/208: NGR (protein, UniProt Q2UCU3 19-1005, looked up, variant G204N C205G V208R)
Beta-galactosidase A: B1 Beta-galactosidase A with G186N, C187G, V190R, E240D
% Peak Area Siamenoside I [6]: 72 % Peak Area
Reaction Progress [6]: 87
Siamenoside I Substrate Evaluation % Peak Area Siamenoside I Left After 72 hr [7]: 72 % Peak Area

B3: S3 RRK 7: RRK loop library variant, positions 204/205/208: DSE (protein, UniProt Q2UCU3 19-1005, looked up, variant G204D C205S V208E)
Beta-galactosidase A: B1 Beta-galactosidase A with G186D, C187S, V190E, E240D
% Peak Area Siamenoside I [6]: 72 % Peak Area
Reaction Progress [6]: 85
Siamenoside I Substrate Evaluation % Peak Area Siamenoside I Left After 72 hr [7]: 73 % Peak Area

B4: E142A RRK77: β-galactosidase variant, RRK substitutions ENR with E142A (protein, UniProt Q2UCU3 19-1005, looked up, variant E142A G204E C205N V208R)
Beta-galactosidase A: B1 Beta-galactosidase A with E124A, G186E, C187N, V190R, E240D
Reaction progress (% conversion) [5]: 89%
% Siamenoside I [5]: 76 ± 3.1%

B5: S2 RRK 13: RRK loop library variant, positions 204/205/208: EES (protein, UniProt Q2UCU3 19-1005, looked up, variant G204E C205E V208S)
Beta-galactosidase A: B1 Beta-galactosidase A with G186E, C187E, V190S, E240D
% Peak Area Siamenoside I [6]: 72 % Peak Area
Reaction Progress [6]: 88
Siamenoside I Substrate Evaluation % Peak Area Siamenoside I Left After 72 hr [7]: 73 % Peak Area

B6: S2 RRK 12: RRK loop library clone, positions 204/205/208: GCV (wildtype) (protein, UniProt Q2UCU3 19-1005, looked up)
Beta-galactosidase A: B1 Beta-galactosidase A with E240D
% Peak Area Siamenoside I [6]: 66 % Peak Area
Reaction Progress [6]: 89
Siamenoside I Substrate Evaluation % Peak Area Siamenoside I Left After 72 hr [7]: 35 % Peak Area

oNPG [4]: 33.6 ± 0.4 mAu/min/mg
B7: E142A: A. oryzae β-galactosidase variant, E142A (protein, UniProt Q2UCU3 19-1005, looked up, variant E142A)
Beta-galactosidase A: B1 Beta-galactosidase A with E124A, E240D
Km [1]: 4420 ± 900 µM
kcat [1]: 3.9 ± 0.7 s⁻¹
Siamenoside I production/yield from mogroside V (in words) [2]: increased ratio of Siamenoside I production; also recorded: increased Siamenoside I yield
mog III [2, 10]: 1 molar percentage
mog V [2, 10]: 67 molar percentage
sia I [2, 10]: 32 molar percentage
Initial Rate [2]: 2.16 µmol/min/mg
Reaction Progress [2]: 89%
Sia 1 [2]: 73%
Sia:MogIII [2]: 16.2
Sia:MogIV [2]: 13
mog II [8]: 3 molar percentage
mog III [8]: 12 molar percentage
sia I [8]: 84 molar percentage
Km [3]: 2000 ± 400 µM
kcat [3]: 741 ± 38 s⁻¹
Reaction progress (% conversion) [5]: 91%
% Siamenoside I [5]: 78 ± 2.8%
mog II [9, 11]: 0.1 molar percentage
mog III [9, 11]: 3 molar percentage
mog IV [9, 11]: 0.2 molar percentage
mog V [9, 11]: 10 molar percentage
sia I [9, 11]: 82 molar percentage
effectiveness of Siamenoside I as a substrate in the presence of mogroside V (in words) ([9]; comparison of wildtype and variant): reducing the effectiveness of Siamenoside I as a substrate

B8: S3 RRK 5: RRK loop library variant, positions 204/205/208: ESG (protein, UniProt Q2UCU3 19-1005, looked up, variant G204E C205S V208G)
Beta-galactosidase A: B1 Beta-galactosidase A with G186E, C187S, V190G, E240D
% Peak Area Siamenoside I [6]: 73 % Peak Area
Reaction Progress [6]: 87
Siamenoside I Substrate Evaluation % Peak Area Siamenoside I Left After 72 hr [7]: 69 % Peak Area
